Measured values reported in IntAct's records for PubMed 12802020.

B1: Tumor susceptibility gene 101 protein (Homo sapiens), Q99816 (parent)
chain: MAVSESQLKKMVSKYKYRDLTVRETVNVITLYKDLKPVLDSYVFNDGSSRELMNLTGTIPVPYRGNTYNIPICLWLLDTYPYNPPICFVKPTSSMTIKTGKHVDANGKIYLPYLHEWKHPQSDLLGLIQVMIVVFGDEPPVFSRPISASYPPYQATGPPNTSYMPGMPGGISPYPSGYPPNPSGYPGCPYPPGGPYPATTSSQYPSQPPVTTVGPSRDGTISEDTIRASLISAVSDKLRWRMKEEMDRAQAELNALKRTEEDLKKGHQKLEEMVTRLDQEVAEVDKNIELLKKKDEELSSALEKMENQSENNDIDEVIIPTAPLYKQILNLYAEENAIEDTIFYLGEALRRGVIDLDVFLKHVRLLSRKQFQLRALMQKARKTAGLSDLY

Variants of: B1
Conditions: with hgs_human HGS

Variant	effect of a mutation on the interaction
N45A	decreasing interaction strength
V89A	decreasing interaction strength
P320L;P323L	increasing interaction strength
M95A	decreasing interaction strength
Y63A	decreasing interaction
